Source: patent US20250043302A1, “MUTATED HYDROXYPHENYLPYRUVATE DIOXYGENASE POLYPEPTIDE, AND CODING GENE AND USE THEREOF” (BEIJING DABEINONG BIOTECHNOLOGY CO., LTD., priority 2021, published 2025)

Columns and labels:
Type in all cases: in vivo
[1] = system: Arabidopsis thaliana T1 plants; test: Isoxaflutole tolerance of transgenic Arabidopsis thaliana T1 plants (spray, bleached leaf area grade, damage score); design: Scores (pesticide damage): scale not given here; conditions: spray, Arabidopsis thaliana T1 plants; for Classification and statistics of the grade of pesticide damage: Grade 0 (number of plants) / Classification and statistics of the grade of pesticide damage: Grade 1 (number of plants) / Classification and statistics of the grade of pesticide damage: Grade 2 (number of plants) / Classification and statistics of the grade of pesticide damage: Grade 3 (number of plants): 16 plants
Method in brief: (§1)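 Damage was assessed by bleaching grade (0 none; 1 <50%; 2 >50%; 3 100% of leaf area) one week after spraying. Sprays on 18-day-old T1 and wild-type plants used field-rate multiples: topramezone 25–200, isoxaflutole 35–280, mesotrione 52.5–420 g ai/ha.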

[2] = system: Arabidopsis thaliana T1 plants; test: Topramezone tolerance of transgenic Arabidopsis thaliana T1 plants (spray, bleached leaf area grade, damage score); conditions: 7 DAT, Table 4; for Classification and statistics of the grade of pesticide damage: Grade 0 / Classification and statistics of the grade of pesticide damage: Grade 1 / Classification and statistics of the grade of pesticide damage: Grade 2 / Classification and statistics of the grade of pesticide damage: Grade 3: number of plants; for Scores: pesticide damage score 0-100
Method in brief: as §1

[3] = system: Arabidopsis thaliana T1 plants; test: Mesotrione tolerance of transgenic Arabidopsis thaliana T1 plants (spray, bleached leaf area grade, damage score); design: Scores: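 damage score 0-100 computed as Σ(N×S)/(T×M)×100 over grades 0-3 with higher meaning more damage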; conditions: Arabidopsis thaliana T1 plants; for Grade 0 (classification and statistics of the grade of pesticide damage; number of plants) / Grade 1 (classification and statistics of the grade of pesticide damage; number of plants) / Grade 2 (classification and statistics of the grade of pesticide damage; number of plants) / Grade 3 (classification and statistics of the grade of pesticide damage; number of plants): 16 plants
Method in brief: as §1

[4] = isoxaflutole 35 g ai/ha (0.5x field concentration)
[5] = isoxaflutole 70 g ai/ha (1x field concentration)

Molecule | Resistance evaluation [1, 4] | Scores (pesticide damage) [1, 4] | Classification and statistics of the grade of pesticide damage: Grade 0 (number of plants) [1, 4] | Classification and statistics of the grade of pesticide damage: Grade 1 (number of plants) [1, 4] | Classification and statistics of the grade of pesticide damage: Grade 2 (number of plants) [1, 4] | Classification and statistics of the grade of pesticide damage: Grade 3 (number of plants) [1, 4] | Resistance evaluation [1, 5] | Scores (pesticide damage) [1, 5] | Classification and statistics of the grade of pesticide damage: Grade 0 (number of plants) [1, 5] | Classification and statistics of the grade of pesticide damage: Grade 1 (number of plants) [1, 5] | Classification and statistics of the grade of pesticide damage: Grade 2 (number of plants) [1, 5] | Classification and statistics of the grade of pesticide damage: Grade 3 (number of plants) [1, 5] | Classification and statistics of the grade of pesticide damage: Grade 0 ([2]; topramezone 25 g ai/ha (1×)) | Classification and statistics of the grade of pesticide damage: Grade 1 ([2]; topramezone 25 g ai/ha (1×)) | Classification and statistics of the grade of pesticide damage: Grade 2 ([2]; topramezone 25 g ai/ha (1×)) | Classification and statistics of the grade of pesticide damage: Grade 3 ([2]; topramezone 25 g ai/ha (1×)) | Classification and statistics of the grade of pesticide damage: Grade 0 ([2]; topramezone 100 g ai/ha (4×)) | Classification and statistics of the grade of pesticide damage: Grade 1 ([2]; topramezone 100 g ai/ha (4×)) | Classification and statistics of the grade of pesticide damage: Grade 2 ([2]; topramezone 100 g ai/ha (4×)) | Classification and statistics of the grade of pesticide damage: Grade 3 ([2]; topramezone 100 g ai/ha (4×)) | also measured
ZmHPPD-02: nucleotide sequence encoding wild-type Zea mays HPPD; vector DBN11766 (nucleic acid, ZmHPPD-02 Nucleotide Sequence, vector DBN11766) DNA: ATGCCACCCACACCCACAGCAGCAGCGGCGGGCGCAGCGGTCGCAGCGGCGTCAGCGGCGGAGCAAGCGGCGTTCAGATTGGTTGGTCACCGCAACTTCGTGAGATTCAATCCTCGCTCAGATAGATTCCATACTCTGGCCTTCCACCATGTTGAGCTTTGGTGCGCTGATGCTGCTTCTGCTGCTGGAAGGTTCAGCTTCGGTTTGGGTGCTCCCCTCGCTGCTAGATCTGATTTGAGCACTGGTAACTCAGCACATGCTTCCCTCCTGCTTAGATCTGGCTCTCTGAGCTTCCTTTTCACTGCTCCATATGCTCATGGTGCTGATGCTGCTACAGCTGCTCTCCCTTCATTCTCCGCTGCTGCTGCTAGGAGATTCGCTGCTGATCACGGATTGGCTGTGAGGGCTGTTGCACTTAGAGTTGCTGATGCTGAGGAGGCCTTCCGCACCTCTGTTGCTGCTGGAGCCAGACCAGCTTTCGGACCTGTTGATCTCGGAAGGGGTTTCCGCCTGGCTGAGGTGGAGCTTTACGGCGATGTGGTTCTGCGCTACGTTAGCTATCCTGATGGTGCTGCTGGTGAACCTTTCCTTCCAGGATTCGAGGGTGTGGCCTCACCAGGTGCCGCTGATTACGGCCTGTCCAGATTCGACCACATTGTTGGAAATGTTCCTGAGCTTGCTCCAGCTGCTGCCTACTTCGCTGGCTTCACCGGATTCCATGAGTTCGCCGAGTTCACCACTGAGGATGTGGGAACTGCTGAGTCTGGTTTGAATAGCATGGTGCTCGCCAACAATTCAGAGAACGTTTTGCTCCCTCTGAATGAGCCCGTGCACGGAACAAAGAGAAGGTCCCAGATTCAAACCTTCTTGGATCACCACGGCGGCCCAGGTGTTCAGCATATGGCTCTCGCCTCCGATGACGTGTTGAGAACCCTCAGGGAGATGCAAGCCAGGTCTGCTATGGGTGGCTTCGAGTTCATGGCCCCACCTACAAGCGATTACTATGATGGTGTGCGCAGAAGGGCTGGCGACGTTCTTACCGAGGCTCAGATCAAGGAGTGCCAAGAGCTGGGCGTGCTTGTTGATAGAGATGACCAGGGAGTTCTGCTTCAAATTTTCCCCAAGCCAGTGGGCGACAGGCCTACTTTGTTCCTCGAGATTATCCAGAGAATCGGATGCATGGAGAGGGATGAGAAGGGTCAGGAGTACCAAAAGGGAGGTTGCGGCGGATTCGGCAAGGGAAATTTCTCACAACTCTTCAAGTCCATCGAGGACTATGAAAAGAGTCTGGAAGCGATGCAGGCAGCAGCAGCAGCAACCGCACAGGGGTCGTGA | Non-resistant | 100 | 0 | 0 | 0 | 16 | Non-resistant | 100 | 0 | 0 | 0 | 16 | 0 | 0 | 0 | 16 | 0 | 0 | 0 | 16 | Scores ([2]; topramezone 25 g ai/ha (1×)): 100; Scores ([2]; topramezone 100 g ai/ha (4×)): 100; Resistance evaluation ([2]; topramezone 25 g ai/ha (1×)): non-resistant (non-resistant plants (scores 68-100)); Resistance evaluation ([2]; topramezone 100 g ai/ha (4×)): non-resistant (non-resistant plants (scores 68-100)); Resistance evaluation ([3]; mesotrione 52.5 g ai/ha): Non-resistant; Scores ([3]; mesotrione 52.5 g ai/ha): 100; Grade 0 (classification and statistics of the grade of pesticide damage; number of plants) ([3]; mesotrione 52.5 g ai/ha): 0; Grade 1 (classification and statistics of the grade of pesticide damage; number of plants) ([3]; mesotrione 52.5 g ai/ha): 0; Grade 2 (classification and statistics of the grade of pesticide damage; number of plants) ([3]; mesotrione 52.5 g ai/ha): 0; Grade 3 (classification and statistics of the grade of pesticide damage; number of plants) ([3]; mesotrione 52.5 g ai/ha): 16; Resistance evaluation ([3]; mesotrione 105 g ai/ha): Non-resistant; Scores ([3]; mesotrione 105 g ai/ha): 100; Grade 0 (classification and statistics of the grade of pesticide damage; number of plants) ([3]; mesotrione 105 g ai/ha): 0; Grade 1 (classification and statistics of the grade of pesticide damage; number of plants) ([3]; mesotrione 105 g ai/ha): 0; Grade 2 (classification and statistics of the grade of pesticide damage; number of plants) ([3]; mesotrione 105 g ai/ha): 0; Grade 3 (classification and statistics of the grade of pesticide damage; number of plants) ([3]; mesotrione 105 g ai/ha): 16
ZmHPPDm-F372A-F383W-02: nucleotide sequence encoding Zea mays HPPD with F372A+F383W; vector DBN11769 (nucleic acid, ZmHPPDm-F372A-F383W-02 Nucleotide Sequence, vector DBN11769) DNA: ATGCCACCCACACCCACAGCAGCAGCGGCGGGCGCAGCGGTCGCAGCGGCGTCAGCGGCGGAGCAAGCGGCGTTCAGATTGGTTGGTCACCGCAACTTCGTGAGATTCAATCCTCGCTCAGATAGATTCCATACTCTGGCCTTCCACCATGTTGAGCTTTGGTGCGCTGATGCTGCTTCTGCTGCTGGAAGGTTCAGCTTCGGTTTGGGTGCTCCCCTCGCTGCTAGATCTGATTTGAGCACTGGTAACTCAGCACATGCTTCCCTCCTGCTTAGATCTGGCTCTCTGAGCTTCCTTTTCACTGCTCCATATGCTCATGGTGCTGATGCTGCTACAGCTGCTCTCCCTTCATTCTCCGCTGCTGCTGCTAGGAGATTCGCTGCTGATCACGGATTGGCTGTGAGGGCTGTTGCACTTAGAGTTGCTGATGCTGAGGAGGCCTTCCGCACCTCTGTTGCTGCTGGAGCCAGACCAGCTTTCGGACCTGTTGATCTCGGAAGGGGTTTCCGCCTGGCTGAGGTGGAGCTTTACGGCGATGTGGTTCTGCGCTACGTTAGCTATCCTGATGGTGCTGCTGGTGAACCTTTCCTTCCAGGATTCGAGGGTGTGGCCTCACCAGGTGCCGCTGATTACGGCCTGTCCAGATTCGACCACATTGTTGGAAATGTTCCTGAGCTTGCTCCAGCTGCTGCCTACTTCGCTGGCTTCACCGGATTCCATGAGTTCGCCGAGTTCACCACTGAGGATGTGGGAACTGCTGAGTCTGGTTTGAATAGCATGGTGCTCGCCAACAATTCAGAGAACGTTTTGCTCCCTCTGAATGAGCCCGTGCACGGAACAAAGAGAAGGTCCCAGATTCAAACCTTCTTGGATCACCACGGCGGCCCAGGTGTTCAGCATATGGCTCTCGCCTCCGATGACGTGTTGAGAACCCTCAGGGAGATGCAAGCCAGGTCTGCTATGGGTGGCTTCGAGTTCATGGCCCCACCTACAAGCGATTACTATGATGGTGTGCGCAGAAGGGCTGGCGACGTTCTTACCGAGGCTCAGATCAAGGAGTGCCAAGAGCTGGGCGTGCTTGTTGATAGAGATGACCAGGGAGTTCTGCTTCAAATTGCTCCCAAGCCAGTGGGCGACAGGCCTACTTTGTGGCTCGAGATTATCCAGAGAATCGGATGCATGGAGAGGGATGAGAAGGGTCAGGAGTACCAAAAGGGAGGTTGCGGCGGATTCGGCAAGGGAAATTTCTCACAACTCTTCAAGTCCATCGAGGACTATGAAAAGAGTCTGGAAGCGATGCAGGCAGCAGCAGCAGCAACCGCACAGGGGTCGTGA | Moderately | 25 | 5 | 10 | 1 | 0 | Poorly | 38 | 3 | 8 | 5 | 0 | 16 | 0 | 0 | 0 | 10 | 5 | 1 | 0 | Scores ([2]; topramezone 25 g ai/ha (1×)): 0; Scores ([2]; topramezone 100 g ai/ha (4×)): 15; Resistance evaluation ([2]; topramezone 25 g ai/ha (1×)): highly; Resistance evaluation ([2]; topramezone 100 g ai/ha (4×)): highly; Resistance evaluation ([3]; mesotrione 52.5 g ai/ha): Highly resistant; Scores ([3]; mesotrione 52.5 g ai/ha): 15; Grade 0 (classification and statistics of the grade of pesticide damage; number of plants) ([3]; mesotrione 52.5 g ai/ha): 9; Grade 1 (classification and statistics of the grade of pesticide damage; number of plants) ([3]; mesotrione 52.5 g ai/ha): 7; Grade 2 (classification and statistics of the grade of pesticide damage; number of plants) ([3]; mesotrione 52.5 g ai/ha): 0; Grade 3 (classification and statistics of the grade of pesticide damage; number of plants) ([3]; mesotrione 52.5 g ai/ha): 0; Resistance evaluation ([3]; mesotrione 105 g ai/ha): Moderately; Scores ([3]; mesotrione 105 g ai/ha): 33; Grade 0 (classification and statistics of the grade of pesticide damage; number of plants) ([3]; mesotrione 105 g ai/ha): 3; Grade 1 (classification and statistics of the grade of pesticide damage; number of plants) ([3]; mesotrione 105 g ai/ha): 10; Grade 2 (classification and statistics of the grade of pesticide damage; number of plants) ([3]; mesotrione 105 g ai/ha): 3; Grade 3 (classification and statistics of the grade of pesticide damage; number of plants) ([3]; mesotrione 105 g ai/ha): 0
